The labels stand for the following.
T1: human CD19 on Nalm6 B cells (human, UniProt P15391 20-556)
T1 sequence: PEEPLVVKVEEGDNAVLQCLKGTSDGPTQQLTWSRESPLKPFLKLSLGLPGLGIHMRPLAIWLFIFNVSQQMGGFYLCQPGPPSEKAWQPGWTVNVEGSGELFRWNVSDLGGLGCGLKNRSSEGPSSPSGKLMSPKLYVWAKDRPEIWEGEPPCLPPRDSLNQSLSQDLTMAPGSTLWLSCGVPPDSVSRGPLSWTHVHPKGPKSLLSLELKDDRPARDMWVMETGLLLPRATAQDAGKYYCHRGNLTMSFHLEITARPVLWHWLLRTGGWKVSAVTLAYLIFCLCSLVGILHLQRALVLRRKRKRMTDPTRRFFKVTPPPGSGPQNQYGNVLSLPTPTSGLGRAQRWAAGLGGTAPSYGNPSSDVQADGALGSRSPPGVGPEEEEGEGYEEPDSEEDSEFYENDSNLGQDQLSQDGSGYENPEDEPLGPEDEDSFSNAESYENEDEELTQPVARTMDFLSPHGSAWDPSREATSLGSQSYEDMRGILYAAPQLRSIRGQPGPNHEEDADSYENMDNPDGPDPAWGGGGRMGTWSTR

B1: FAP (4B9) - CD28 (CD28(SA)_Variant 23) 1+1 (bispecific antibody, human IgG1, kappa, L234A L235A)
heavy 1: EIVLTQSPGTLSLSPGERATLSCRASQSVTSSYLAWYQQKPGQAPRLLINVGSRRATGIPDRFSGSGSGTDFTLTISRLEPEDFAVYYCQQGIMLPPTFGQGTKVEIKSSASTKGPSVFPLAPSSKSTSGGTAALGCLVKDYFPEPVTVSWNSGALTSGVHTFPAVLQSSGLYSLSSVVTVPSSSLGTQTYICNVNHKPSNTKVDKKVEPKSCDKTHTCPPCPAPEAAGGPSVFLFPPKPKDTLMISRTPEVTCVVVDVSHEDPEVKFNWYVDGVEVHNAKTKPREEQYNSTYRVVSVLTVLHQDWLNGKEYKCKVSNKALGAPIEKTISKAKGQPREPQVCTLPPSRDELTKNQVSLSCAVKGFYPSDIAVEWESNGQPENNYKTTPPVLDSDGSFFLVSKLTVDKSRWQQGNVFSCSVMHEALHNHYTQKSLSLSP
light 1: EVQLLESGGGLVQPGGSLRLSCAASGFTFSSYAMSWVRQAPGKGLEWVSAIIGSGASTYYADSVKGRFTISRDNSKNTLYLQMNSLRAEDTAVYYCAKGWFGGFNYWGQGTLVTVSSASVAAPSVFIFPPSDEQLKSGTASVVCLLNNFYPREAKVQWKVDNALQSGNSQESVTEQDSKDSTYSLSSTLTLSKADYEKHKVYACEVTHQGLSSPVTKSFNRGEC
heavy 2: not shown
light 2: not shown
notes: huIgG1 PG-LALA CrossFab 1+1; also called P1AE3138
B2: FAP (4B9) - CD28 (CD28(SA)_Variant 29) 1+1 (bispecific antibody, human IgG1, kappa, L234A L235A)
heavy 1: B1 heavy 1
light 1: B1 light 1
heavy 2: not shown
light 2: not shown
notes: huIgG1 PG-LALA CrossFab 1+1; also called P1AE3141
B3: FAP (4B9) - CD28 (CD28(SA)_Variant 25) 1+1 (bispecific antibody, human IgG1, kappa, L234A L235A)
heavy 1: B1 heavy 1
light 1: B1 light 1
heavy 2: not shown
light 2: not shown
notes: huIgG1 PG-LALA CrossFab 1+1; also called P1AE3139
B4: FAP(4B9)-CD28(SA) 1+1 format (Molecule C) (bispecific antibody, human IgG1, kappa, L234A L235A)
heavy 1: not shown
light 1: not shown
heavy 2: B1 heavy 1
light 2: B1 light 1
notes: huIgG1 PG-LALA CrossFab, knob-into-hole; also called P1AD4492; parental
B5: FAP(4B9)-CD28(SA) 1+2 format (Molecule E) (bispecific antibody, human IgG1, kappa, L234A L235A)
heavy 1: not shown
heavy 2: QVQLVQSGAEVKKPGASVKVSCKASGYTFTSYYIHWVRQAPGQGLEWIGCIYPGNVNTNYNEKFKDRATLTVDTSISTAYMELSRLRSDDTAVYFCTRSHYGLDWNFDVWGQGTTVTVSSASTKGPSVFPLAPSSKSTSGGTAALGCLVKDYFPEPVTVSWNSGALTSGVHTFPAVLQSSGLYSLSSVVTVPSSSLGTQTYICNVNHKPSNTKVDKKVEPKSCDKTHTCPPCPAPEAAGGPSVFLFPPKPKDTLMISRTPEVTCVVVDVSHEDPEVKFNWYVDGVEVHNAKTKPREEQYNSTYRVVSVLTVLHQDWLNGKEYKCKVSNKALGAPIEKTISKAKGQPREPQVCTLPPSRDELTKNQVSLSCAVKGFYPSDIAVEWESNGQPENNYKTTPPVLDSDGSFFLVSKLTVDKSRWQQGNVFSCSVMHEALHNHYTQKSLSLSPGGGGGSGGGGSGGGGSGGGGSEIVLTQSPGTLSLSPGERATLSCRASQSVTSSYLAWYQQKPGQAPRLLINVGSRRATGIPDRFSGSGSGTDFTLTISRLEPEDFAVYYCQQGIMLPPTFGQGTKVEIK
light: not shown
notes: bivalent anti-CD28, monovalent anti-FAP (VH and VL fused to the C-termini of the Fc chains); also called P1AD9011; FAP-CD28 1+2 SA
B6: FAP-CD28 CTF (P1AE2236) (bispecific antibody, human IgG1, kappa, L234A L235A)
CD28(SA) light chain: not shown
heavy chain CD28(SA) VHCH - Fc hole - FAP(4B9) VL: B5 heavy 2
Fc knob - FAP(4B9) VH: not shown
notes: also called Molecule I; FAP(4B9)-CD28(SA) C-04
B7: CD19 (8B8-2B11)-CD28 (SA_v8) 1+1 (Molecule 18C) (bispecific antibody, human IgG1, kappa, L234A L235A)
heavy 1: not shown
light 1: not shown
heavy 2: DIVMTQTPLSLSVTPGQPASISCKSSQSLETSTGTTYLNWYLQKPGQSPQLLIYRVSKRFSGVPDRFSGSGSGTDFTLKISRVEAEDVGVYYCLQLLEDPYTFGQGTKLEIKSSASTKGPSVFPLAPSSKSTSGGTAALGCLVKDYFPEPVTVSWNSGALTSGVHTFPAVLQSSGLYSLSSVVTVPSSSLGTQTYICNVNHKPSNTKVDKKVEPKSCDKTHTCPPCPAPEAAGGPSVFLFPPKPKDTLMISRTPEVTCVVVDVSHEDPEVKFNWYVDGVEVHNAKTKPREEQYNSTYRVVSVLTVLHQDWLNGKEYKCKVSNKALGAPIEKTISKAKGQPREPQVCTLPPSRDELTKNQVSLSCAVKGFYPSDIAVEWESNGQPENNYKTTPPVLDSDGSFFLVSKLTVDKSRWQQGNVFSCSVMHEALHNHYTQKSLSLSP
light 2: QVQLVQSGAEVKKPGASVKVSCKASGYTFTDYIMHWVRQAPGQGLEWMGYINPYNDGSKYTEKFQGRVTMTSDTSISTAYMELSRLRSDDTAVYYCARGTYYYGPQLFDYWGQGTTVTVSSASVAAPSVFIFPPSDEQLKSGTASVVCLLNNFYPREAKVQWKVDNALQSGNSQESVTEQDSKDSTYSLSSTLTLSKADYEKHKVYACEVTHQGLSSPVTKSFNRGEC
notes: huIgG1 PG-LALA CrossFab; also called P1AF0175; CD19-CD28 v8
B8: CD19 (8B8-2B11)-CD28 (SA_v27) 1+1 (Molecule E of Example 18; 18E) (bispecific antibody, human IgG1, kappa, L234A L235A)
heavy 1: not shown
light 1: not shown
heavy 2: B7 heavy 2
light 2: B7 light 2
notes: huIgG1 PG-LALA CrossFab; also called P1AF0378; CD19-CD28 v27
B9: CD19 (8B8-2B11)-CD28 (SA_v11) 1+1 (Molecule D of Example 18; 18D) (bispecific antibody, human IgG1, kappa, L234A L235A)
heavy 1: not shown
light 1: not shown
heavy 2: B7 heavy 2
light 2: B7 light 2
notes: huIgG1 PG-LALA CrossFab; also called P1AF0377; CD19-CD28 v11
B10: CD19 (8B8-2B11)-CD28 (SA_v29) 1+1 (Molecule 18A) (bispecific antibody, human IgG1, kappa, L234A L235A)
heavy 1: not shown
light 1: not shown
heavy 2: B7 heavy 2
light 2: B7 light 2
notes: huIgG1 PG-LALA CrossFab; also called P1AE8002; CD19-CD28 v29
B11: CD19 (8B8-2B11)-CD28 (SA_v15) 1+1 (Molecule 18B) (bispecific antibody, human IgG1, kappa, L234A L235A)
heavy 1: not shown
light 1: not shown
heavy 2: B7 heavy 2
light 2: B7 light 2
notes: huIgG1 PG-LALA CrossFab; also called P1AE9040; CD19-CD28 v15

This is an account of results in patent publication US20230416365A1 (Hoffmann-La Roche, published 2023).

A word on the Kd: it is the concentration at which binding is half-saturated. By koff is commonly meant the first-order rate constant of dissociation. A low value points to slow dissociation. As a reminder, the kon is a measure of how fast the partners come together. A high value points to faster complex formation. As a reminder, the EC50 (read off the curve) is the concentration giving half of the maximal effect. A word on the EC50: it is the concentration giving half of the maximal effect.

In the first experiment the target is T2, biotinylated huCD28-Fc (dimeric CD28-Fc construct with a monovalent biotinylated avi-tag) (human, UniProt P10747 19-152, biotinylated at the C-terminal avi tag).
T2 construct: not shown: hum IgG1 Fc fragment with hole and PG-LALA mutations; hum IgG1 Fc fragment with knob and PG-LALA mutations
Kind of experiment: SPR, ProteOn XPR36, huCD28-Fc on NLC chip, bispecific as analyte. (Surface plasmon resonance follows binding to a sensor surface in real time, without labels.)
On to B1, for which the Kd worked out at 16.3 nM, the koff turned out to be 0.00342 s⁻¹ and the kon was 211000 M⁻¹ s⁻¹.

For the molecule B2, the affinity, expressed as Kd, was 1.1 nM; the koff stood at 0.000307 s⁻¹; the kon worked out at 272000 M⁻¹ s⁻¹.

Consider B3, for which the Kd was determined as 1.7 nM, the koff turned out to be 0.000396 s⁻¹ and the kon came out at 238000 M⁻¹ s⁻¹.

Another experiment addresses T3, human FAP on 3T3-huFAP cells (clone 19) (human, UniProt Q12884 1-760). Briefly: flow cytometry on 3T3-huFAP cells, median fluorescence intensity (axis MFI APC).
Take B4: the 50% effective concentration (EC50 (read off the curve)) was approximately 1 nM.

With B5, the “EC50 (read off the curve)” value was approximately 4 nM.

As for B6, the 50% effective concentration (EC50 (read off the curve)) was approximately 2 nM.

The next experiment addresses T3, human FAP on 3T3-huFAP cells (clone 19). Briefly: flow cytometry on 3T3-huFAP cells, FAP-CD28 1+1 constructs, MFI (PE). A general note: A flow cytometer gives signals particle by particle.
As for B1, the binding result was “binds”.

In the case of B2, the binding result is recorded as “binds”.

For the molecule B3, the binding result is “binds”.

For the next experiment, the target named is T1, human CD19 on Nalm6 B cells. Kind of experiment: flow cytometry on Nalm6 B cells.
B7 yielded an EC50 of 0.232 nM.

For B8, the midpoint of the response, the EC50, lay at 0.368 nM.

The molecule B9 came in with a half-maximal effective concentration (EC50) of 0.363 nM.

Turning to B10, the EC50 turned out to be 0.274 nM.

For the molecule B11, the EC50 came out at 0.416 nM.

In another experiment the target is T4, human CD28 on CHO cells (parental cell line CHO-k1 ATCC #CCL-61, modified to stably overexpress human CD28) (human, UniProt P10747 19-220).
T4 construct: also called hu CD28; CHO-hCD28
Kind of experiment: flow cytometry on CHOk1-CD28 cells.
On to B7, for which the concentration giving a half-maximal response (EC50) was 232 nM.

With B8, the concentration giving a half-maximal response (EC50) was 10.8 nM.

Turning to B9, the EC50 was found to be 150 nM.

For the molecule B10, the concentration for a half-maximal effect (EC50) was found to be 6.65 nM.

For B11, the half-maximal effective concentration (EC50) was determined as 15.6 nM.

The next experiment has as its target T4, human CD28 on CHO cells (parental cell …). Kind of experiment: binding to CHO cells expressing human CD28 (by the table's title).
As to B1, the dissociation constant Kd was determined as 16.3 nM.

B2: the dissociation constant (Kd) worked out at 1.1 nM.

Regarding B3, the Kd worked out at 1.7 nM.
